In experiment [1] the target is acetylcholine receptor (AChR) (mouse (endogenous in C2C12 myotubes and mouse muscle)) (UniProt P04756). Kind of experiment: pull-down.
Experiment [2] deals with CD4-AChR β subunit MA loop chimera (UniProt P09690 333-469). Kind of experiment: co-IP.

B1: Flag-vezatin (natural protein, UniProt Q3ZK22 1-780, looked up)
chain: MTPEFDEEVVFENSPLYQYLQDLGHTDFEICSSSSPKPEKCLTTEGPQPPPTRVLQRQGILLKLTETIKSWTFSSQHSKKDDLLHKLDTGFRLDSLHTILQQEVLLQEDVELLELLDASILSAGQPQQESGHLPTLCSLATPNTWDVSLLFAFISLLIMFPTCWIVSSWLVWGIILFLYLIIRVLKLWRTAKLQMTLKKYRVRLEDMAANSRAFTNLVRKSLRLIQETEVISRGFTLVSAACSFNKAAQHPGQHLIGLRKAVYRTVRANFQAARLATLYMLKNYPLNSESDNVTNYICVVPFKELGLGLSEDQISEEEARNLTDGFSLPALKVLFQLWVAQSSEFFRRLALLLSTANSPSGPLLTAALLPHHILCDVTQGLPHAHSACLDELKRSYEFFRYFETQHQSVPQRLSKTPQKSRELSNVHTAVRSLQLHLKALLNEVIILEDELEKLVCTKETQELLSEAYPILEQKLKLIEPHVQASNSCWEEAISQVDKLLRRNTDKKGKPGVACENPHCTAEPLVRPALHIEDRDPIPEEQELEAYVDDIDIESEFRKDDFYHLSQEDRERQKREQEESRRVLQELKSVLGFKASEAERQKWKQLLFSDHAVLTSLSPVDPVESVSNSEPPMNSDTEKVNSNATEEETSKPCAGDKEDSRTEYVCDSPTEGPSKDTSADTGLLLPGAEETMCHQHESEAKSPQAAAAGATAPPTPRDTLQLSIKQRLARLQLPPEFTFSAGLAAEVAARSLSFTTMQEQTFGDEEEEQLVEGGENEVEEK
In experiment [1], B1 displayed a fold increase in association in rapsn−/− against rapsn+/− muscle of 1.8 fold and a fold increase in association with agrin treatment (against untreated myotubes) of 1.6 fold. For the same molecule, in experiment [2], the “fold reduction of association when rapsyn-HA is coexpressed” value came out at 4 fold.
